Consider one molecule from PMC2771690 (Molecular cell, 2009).

The target in this assay is T1, proliferating cell nuclear antigen (PCNA), yeast (yeast, UniProt P15873 1-258).
T1 sequence (looked up): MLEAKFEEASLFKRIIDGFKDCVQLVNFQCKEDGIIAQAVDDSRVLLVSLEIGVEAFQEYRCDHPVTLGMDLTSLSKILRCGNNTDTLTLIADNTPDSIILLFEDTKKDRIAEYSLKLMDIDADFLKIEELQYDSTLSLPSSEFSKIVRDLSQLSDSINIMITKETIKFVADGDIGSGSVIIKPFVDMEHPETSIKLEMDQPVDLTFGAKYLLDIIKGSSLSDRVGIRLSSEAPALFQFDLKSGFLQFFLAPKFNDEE
The assay is described as follows: pull-down.

B1: GST-PINIT (Siz1 aa 172-315 as a C-terminal fusion to GST), wild-type (domain or fragment, S. cerevisiae, UniProt Q04195 172-315, looked up)
chain: VPTIHFKESPFYKIQRLIPELVMNVEVTGGRGMCSAKFKLSKADYNLLSNPNSKHRLYLFSGMINPLGSRGNEPIQFPFPNELRCNNVQIKDNIRGFKSKPGTAKPADLTPHLKPYTQQNNVELIYAFTTKEYKLFGYIVEMIT
In the case of B1, the binding result was “binds”.
